The target of assay [1] is TrKA receptor immobilized on the SPR sensor surface. Description: SPR, receptor immobilized, steady-state 1:1 fit (KDeq).
The target in assay [2] is p75^NTR receptor immobilized on the SPR sensor surface. Described as above.
Assay [3] concerns the target T1, Recombinant human NGF (rhNGF) having an aminoacid sequence of 118 aminoacids (rhNGF-118) (human, UniProt P01138 122-239).
T1 construct: Made in E. coli from proNGF mutant SP174-101
The experiment in a line: SPR, receptor immobilized, kinetic Kd (Koff/Kon).

Assay [4] deals with T2, rhNGF-1: recombinant human NGF from R&D Systems Inc (product code: 256-GF/CF), manufactured in a mouse … (human, UniProt P01138 122-241; P01138 122-240; P01138 122-239; P01138 122-238).
T2 construct: A commercial MIXTURE of isoforms, not a complex of four chains: the four entries are alternative forms
T2 sequence (P01138 122-241 limits assumed, chain 1 of 4): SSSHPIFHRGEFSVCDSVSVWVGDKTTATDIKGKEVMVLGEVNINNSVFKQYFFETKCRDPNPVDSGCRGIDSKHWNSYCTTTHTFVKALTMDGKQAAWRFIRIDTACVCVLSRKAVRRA
T2 sequence (P01138 122-240 limits assumed, chain 2 of 4): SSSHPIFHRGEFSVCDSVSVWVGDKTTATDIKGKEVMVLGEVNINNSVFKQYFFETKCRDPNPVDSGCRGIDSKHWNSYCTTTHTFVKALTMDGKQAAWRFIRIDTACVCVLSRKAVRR
T2 sequence (P01138 122-239 limits assumed, chain 3 of 4): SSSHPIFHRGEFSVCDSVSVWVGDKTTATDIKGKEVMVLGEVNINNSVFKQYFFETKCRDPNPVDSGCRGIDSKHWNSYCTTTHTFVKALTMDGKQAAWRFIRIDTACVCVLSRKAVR
T2 sequence (P01138 122-238 limits assumed, chain 4 of 4): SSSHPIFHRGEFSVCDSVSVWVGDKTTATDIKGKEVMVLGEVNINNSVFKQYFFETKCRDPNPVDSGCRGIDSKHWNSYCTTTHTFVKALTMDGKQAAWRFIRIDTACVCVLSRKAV
Description: SPR, receptor immobilized, kinetic Kd (Koff/Kon).

Assay [5] has as its target T1, Recombinant human NGF (rhNGF) having an …. The experiment in a line: SPR, receptor immobilized, steady-state 1:1 fit (KDeq). (SPR reads the build-up and loss of mass on a sensor chip optically.)
Assay [6] concerns the target T2, rhNGF-1: recombinant human NGF from R&D …. The description is as above.
Assay [7] has the same target. Description: SPR, receptor immobilized, kinetic fit (BIA evaluation).
Assay [8] has as its target T1, Recombinant human NGF (rhNGF) having an …. Described as above.

T1 sequence (P01138 122-239 limits assumed): as the sequence (P01138 122-239 limits assumed, chain 3 of 4) above

Usually Kd stands for the free concentration of one partner at which half of the binding sites on the other are occupied at equilibrium, for simple one-to-one binding. Take “rhNGF2: recombinant human NGF from Active Bioscience (product code 1745.955), manufactured in CHO cells (from UniProt P01138 122-238) (ligand)”: the Kd in assay [1] was determined as 3.85 nM; in assay [2] it was 15.7 nM.

For “rhNGF3: recombinant human NGF from Sino Biological (product code: 11050-HNAC), manufactured in CHO cells (from UniProt P01138 122-238) (ligand)”, the results for the Kd in assay [1] and in assay [2] were 6 nM and 39.1 nM, respectively.

B1: p75^NTR receptor immobilized on the SPR sensor surface (receptor)
chain: KEACPTGLYTHSGECCKACNLGEGVAQPCGANQTVCEPCLDSVTFSDVVSATEPCKPCTECVGLQSMSAPCVEADDAVCRCAYGYYQDETTGRCEACRVCEAGSGLVFSCQDKQNTVCEECPDGTYSDEANHVDPCLPCTVCEDTERQLRECTRWADAECEEIPGRWITRSTPPEGSDSTAPSTQEPEAPPEQDLIASTVAGVVTTVMGSSQPVVTRGTTDN
By koff is commonly meant the rate constant with which the complex falls apart. For orientation: kon means the rate constant with which the complex forms. For the molecule B1, the dissociation constant (Kd) in assay [3] amounted to 2.6 nM; in assay [4], 1.33 nM; in assay [5], 7.1 nM; in assay [6] it was 5.06 nM. Moreover, the dissociation rate constant (koff) in assay [7] stood at 0.0111 s⁻¹. For the same molecule, in assay [7], the on-rate constant (kon) was determined as 8.3e+06 M⁻¹ s⁻¹.

B2: TrKA receptor immobilized on the SPR sensor surface (receptor)
chain: AAPCPDACCPHGSSGLRCTRDGALDSLHHLPGAENLTELYIENQQHLQHLELRDLRGLGELRNLTIVKSGLRFVAPDAFHFTPRLSRLNLSFNALESLSWKTVQGLSLQELVLSGNPLHCSCALRWLQRWEEEGLGGVPEQKLQCHGQGPLAHMPNASCGVPTLKVQVPNASVDVGDDVLLRCQVEGRGLEQAGWILTELEQSATVMKSGGLPSLGLTLANVTSDLNRKNVTCWAENDVGRAEVSVQVNVSFPASVQLHTAVEMHHWCIPFSVDGQPAPSLRWLFNGSVLNETSFIFTEFLEPAANETVRHGCLRLNQPTHVNNGNYTLLAANPFGQASASIMAAFMDNPFEFNPEDPIPVSFSPVDTNSTSGDPVEKKDETPFGVSVAVG
In the case of B2, the dissociation constant Kd in assay [3] stood at 0.38 nM; in assay [4] it was 0.0792 nM; in assay [5] it was 4.33 nM; in assay [6] it was 3.65 nM. Moreover, the results for the off-rate (koff) in assay [8] and in assay [7] were 0.00075 s⁻¹ and 0.00061 s⁻¹, respectively. For the same molecule, the kon in assay [8] is 1.67e+06 M⁻¹ s⁻¹; in assay [7] it was 8.3e+06 M⁻¹ s⁻¹.

The values above are taken from patent publication US20240424060A1 (DOMPE FARMACEUTICI, published 2024).
